Results on three molecules are retold here after paper PMC7919418.

Where two headings read alike, the source gives them in different places.

The target of series [1] is T1, SFiNX[wild type] (Panx-Nxf2-Nxt1-Ctp) (Drosophila melanogaster, UniProt Q9W2H9;Q9VV73;Q9V3H8;Q24117 263-541;541-841;1-133;1-89). Put plainly: EMSA. (In EMSA bound probe runs differently from free probe, usually more slowly.)
Series [2] addresses T1, SFiNX[wild type] (Panx-Nxf2-Nxt1-Ctp). Kind of series: EMSA. This is another data set of the same source.

T1 sequence (Q9W2H9 263-541, chain 1 of 3): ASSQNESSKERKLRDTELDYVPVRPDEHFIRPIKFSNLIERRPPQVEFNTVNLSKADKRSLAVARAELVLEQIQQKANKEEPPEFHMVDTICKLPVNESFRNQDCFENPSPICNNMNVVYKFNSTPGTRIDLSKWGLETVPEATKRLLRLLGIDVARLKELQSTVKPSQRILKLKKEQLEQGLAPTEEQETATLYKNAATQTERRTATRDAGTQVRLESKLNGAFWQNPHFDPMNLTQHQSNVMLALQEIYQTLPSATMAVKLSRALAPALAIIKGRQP
T1 sequence (Q9VV73 541-841, chain 2 of 3): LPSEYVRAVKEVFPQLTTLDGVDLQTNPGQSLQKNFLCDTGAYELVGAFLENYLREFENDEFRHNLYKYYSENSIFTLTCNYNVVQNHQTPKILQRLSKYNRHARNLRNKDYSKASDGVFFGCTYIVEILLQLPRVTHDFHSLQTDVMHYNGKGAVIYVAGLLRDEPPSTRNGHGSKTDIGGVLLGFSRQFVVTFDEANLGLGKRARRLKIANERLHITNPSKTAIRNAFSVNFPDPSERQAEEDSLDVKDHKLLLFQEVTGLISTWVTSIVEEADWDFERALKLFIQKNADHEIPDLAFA
T1 sequence (Q24117 whole entry, chain 4 of 3): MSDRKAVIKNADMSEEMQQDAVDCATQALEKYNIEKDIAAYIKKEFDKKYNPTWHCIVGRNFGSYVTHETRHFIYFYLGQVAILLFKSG

B1: 25-bp dsDNA (dsDNA)
DNA 1: ACGCTCAAGTCAGAGGTGGCGAAAC
DNA 2: GTTTCGCCACCTCTGACTTGAGCGT
For B1, the binding result in series [1] is given as “binds”.

B2: 35-nt ssRNA (ssRNA)
RNA: CUCAUCUUGGUCGUACGCGGAAUAGUUUAAACUGU
Take B2: in series [2], the binding result is “binds”.

B3: 35-bp dsRNA (dsRNA)
RNA 1: B2 RNA
RNA 2: ACAGUUUAAACUAUUCCGCGUACGACCAAGAUGAG
B3: in series [1], the binding result was “binds”.
